From a protein production outcome set (Wang et al. 2014)

Assay: label from the status in PepcDB records

Protein production, not failed:
MNHLPEKMRPYRDLLEKSAKEYVKLNVRKGKTGRYDSKIAGDPYFPKHETYPTDENGQPMKLLAQINFSHIPQLDGYPSSGILQFYISVHDDVYGLNFDDRCEQKNFRVIYFENIVENDDELVSDFSFIGTGECDFPILSEAAVEPVKSSEWVLPTDFQFEQYTGMETMEFFGQFGEDEEDIYNELAENGFGHKIGGYASFTQHDPREYAYKEHTIMLLQIDSDDDIDSMWGDVGIANFFITPEDLRKKDFSNVLYNWDCS
MNIETLMIKNPPILSKEDRLGSAFKKINEGGIGRIIVANEKIEGLLTTRDLLSTVESYCKDSCSQGDLYHISTTPIIDYMTPNPVTVYNTSDEFTAINIMVTRNFGSLPVVDINDKPVGIVTEREFLLLYKDLDEIFPVKVFMSTKVQTIYKEVRLDQAVKLMLRRGFRRLPVIDDDNKVVGIVTVVNAIKQLAKAVDKLDPDYFYGKVVKDVMVTNLVTIDELASVNRAAAEMIVKRIGSLLILNKDNTIRGIITERDLLIALHHILVMEKFKEKL
MNIQALLSEKVSQALIAAGAPADCEPQVRQSAKVQFGDYQANGVMAVAKKLGMAPRQLAEQVLSHLDLNGIANKVEIAGPGFINIFLDPAFLADNVNRALQSERLG
MNIRERKRKHLEACLEGEVAYQKTTTGLEGFRLRYQALAGLALSEVDLTTPFLGKTLKAPFLIGAMTGGEENGERINLALAEAAEALGVGMMLGSGRILLERPEALRSFRVRKVAPKALLIANLGLAQLRRYGRDDLLRLVEMLEADALAFHVNPLQEAVQRGDTDFRGLVERLAELLPLPFPVMVKEVGHGLSREAALALRDLPLAAVDVAGAGGTSWARVEEWVRFGEVRHPELCEIGIPTARAILEVREVLPHLPLVASGGVYTGTDGAKALALGADLLAVARPLLRPALEGAERVAAWIGDYLEELRTALFAIGARNPKEARGRVERV
MNISEINGFEVTGFVVRTTNADEMNPMTAKIGNLWEKFYLNAAPKLTDKSKVYGLYTNYESDFTGAFDVIACSDTLSPQLLSESVKTKVSSGKYVTFSATGEMPQVVIDLWNEVWNYFASEHCPHKRAYTTDFEYYKSANTVEISIAVR

Protein production, failed:
MNFSTSFWQGFRALVPLWLGTVPFALAYAVTARAAGLSVGDTCLMSLTTFAGASQFAAAGLFGAHAGGLSIVLTTFLLNARHLLYGLSLARELRLTLPQRVVAAQFLTDEAYGVAVVSGARLPGGLTFAFLLGAELSLYLSWNVSTLLGALAGSVLPPPEQLGVGVVFPLAFLGLLVPLVVDRLSLLVALAAGLGGWALSRVLPGGLVILLAGVGGALLGAALLTRREQRAGVRA
MNGFVQWMEVKLMPIANKFGSQRHMTAIRKGLIATMPLTIVGSFFTIFQNIPIEAYTKLIEPYQAILDIPSRYTMGLLALYATFGIASSLAKSYKLDSLTCGILALMAFLVTAAPPTRVFEDVDNVITAGRYINLANLGSASLFGAIVTALLSVEIYRFFIEKDIMIKMPDGVPPEVSNSFIALIPGAVILLLFWVIRHVIGFDLNGFLSTLLMPLKGILAGNSLFGGLLTVFLICFFWVLGIHGPAIMGPVIRPFWDMSIAENLEAFTNGANVHQLPNIFTEQFLQWFIWIGGAGTTLSLVVLMMFSKSTYLKSLGRLSFLPGLFNINEPVIFGTPIVMNPILGIPFIVAPLITTTLSYFLTVANIIPMMAARLAFAIPAPIAAWMSTNWSFSAAVLVIVNFLITMAIYYPFFKVYEKQQLDKEAEELAAEQAAKN
MNGGSSIKVLGLVGSPKVDGNTAKMVDAILEGAAENGAETVIYNLASLDIKGCDACHRCQETGCCAIDDDMQELYRQIEEADAVVLGSPVYMWQMTAQTKLLIDRMTAFLKPNFSSRLDHKKLILVFTQGIPDRDAFNSYFEYTAGVLYYLGFDVLETIVAAGTDNLEVAFRPRLLEKSRELGKLISASNPVSPRLEHHHHHH
MNGGTFTPGKEKDRAGIYFNFKTTAEERVSIGDRGTVALPVVMSWGEPKTFVSISSIEDLNKKVGLNIDDPSLLLFREAKKNAQTVLLYRLNTGAPAKAQIGETLSVTAKYGGEKGNDISIRISENVLDSKKFDVTTFVGTDEADRQTVKTAEELTANAYVAFQGEGALELTAGTKLSGGENGTASVADYTAFLDAAETEYFNTIALPVADNEQLKATFAAFIKRLRDKQGQKVQGVVADYAGDYEGIINVTGGVVLEDGTEITPEKATAWVAGASAGATFNQSLTFVEYEGAVDVLNRLDEDQVIERLKKGEFLFTFDARDQSVSVEKDINSLTSFTADKNKKFSKNKIIRVLDGVNNDLTRELKALIKARKASGSDIPASDDGLQYVKTLIIQYMTALQEAGGITGFDSESDIAITLNEDRDGFLIDLAVQPVDAAEKFYFNVEVK
MNGYVYLVGAGPGDEGLITKKAIECLKRADIVLYDRLLNPFFLSYTKQTCELMYCGKMPKNHIMRQEMINAHLLQFAQEGKIVVRLKGGDPSIFGRVGEEAETLAAANIPYEIVPGITSSTAASSYAGIPLTHRNYSNSVTLLTGHAKGSLTDHGKYNSSHNSDTIAYYMGIKNLPTICKNLRQAGKKEDTPVAVIEWGTTGKQRVVTGTLSTIVSIVKNENISNPSMTIVGDVVSLRDQIAWKEHKPLHGKKVLFTSATNKTSVMKQKLQEAGAEIYQIPTFKKEEYTLTLEQIIEIFNVNRLVFCSAESVEILMQSCSKYKKDIRSLQAELQHMNVATQEKLMQYGLLSKEAKFSSDTTVYLGRNINRIAFIQEKIGAGSYMMTHKYTIDHRFDEVHSRMLSEFLWDSIVFEGRASIDTFLAEVKRLGFLDIVTLPFSYTDVPTLRYANKVGFHNIDHQLQETLMQKDMVRQ
MNHFTPAQQRKALGYLVLFHLVIIASSNYLVQIPFTIFGFHTTWGAFTFPFIFLATDLTVRIFGAGLARKIIFLVMLPALAVSYLLSVVFFEGQYQGLAPLSEFNLFVARIAIASFMAYLLGQIMDVHVFNRLRQMKQWWVAPTCSTLFGNALDTIAFFSIAFYQSSDPFMAEHWTEIALVDYTFKLIISLGLFVPMYGVLLNYLIKKLTAVNPNFAMASAKA
MNHLISVGALESFLVAISVLFLGHFINAKLPILKKFNIPEPIVGGLIVACIITALHFNGVDLEFDLPLQNTFMLMFFATVGLAANYTQLMKGGAKVFIFLAVASFYIIIQNGVGVSLAAALGLDPLMGLIAGSITLSGGHGTGAAWSQTFQDVYGLNNVLEIAMASATFGLIIGGIIGSPVAQRLVEKHGIESEYGRGGRDAKTHEKFPELVTYNEYEEDKVTAKKVVEKLFFLLICVTGAKYVEQWVSTYEISWLMIPDFVYALFIGVIITNFLEVTKIRKLDAETVDMLGTVSLSLFLAMALMSLKLWNIFDLAIPFLVILAIQSVILAIFTYYVTFKVMGSNYDAAVISGGHCGFGLGATPTAVMNMGSIVNRFGPSPQAFMVVPIVGAFFIDIVNLIILQGYISFLG
MNHTSDTALLIVNLGTPEAPTAAAVRRYLGEFLSDRRVVSIPPLFWKPLLHMVILPIRGPRSASKYAKVWLQEGSPLSVYTRRIAEGLTQHLPDWRVAWAMRYGAPALTKALDALQAQQVRRIVILPLYPQYSTTTTASVQDVVEAWCKRTPQVQVECIQDYAEDPAWVAAVAASIRRHWQAHGRSEKLMFSFHGLPQRVANNGDPYPQRCQVSASLIAAALNLNESEWVLGYQSRFGAERWLQPYAEPTLWALAESGIRRFDLVCPGFSVDCLETLEEVALGFSETLAARGATMRYIPCLNDDPAHVQALAGLAQRALP
MNIAEQMKDVLKEEIKAAVLKAGLAEESQIPNVVLETPKDKTHGDYSTNMAMQLARVAKKAPRQIAEEIVAHFDKGKASIEKLDIAGPGFINFYMNNQYLTKLIPSVLEAGEAYG
MNIILLSGKKSEAQPGDGEYPEYLCEYNGKPLIHTLIDNCAALEPRRIICTFSNDDVIGLHLRNMVQQMHPSASVLPVHNITQGAACTALLASGQIDNDDELLILSVSDFLDIELREVLRVFREANEDAGVVIFNSLHPRYSFARLDSDQRVIEAAEKNPISPHAIAGMYWFKSGSLFVSAAKEMIRKDARVNDHFYIAPALNELVLLHKKIGAYRIEPRQYRPLKTQNQLHAFEMADIR
MNIILNVFLIFVSAILTKLFALFAQHTKLIDIPNERNLHSRPTVRGGGLVFIGLSLFCWFFICNSQFFLTLDQFIFSIAIIFIATISFIDDFYNLSVTIRFFFQCLIAFLIVIFILPSQLDFGLFLFENTYLIAFFLFFAVIWAINHFNFMDGLDGFCASQAIFLLAAYALFFNSAGSLIYQDFCLILISSLAGFLIFNFPPAKIFMGDVGSASLGLITFFIAIIAQKNYQIPILYWFILNSLFLFDSTVTLIRRIIKHEKWFSPHKKHAYQRLKQLGINSRFILLGQAIINGSLFLSVMFMHFQFFNLKNLIIIQLCYLSAIYFFIEKKYPME
MNINIEDLIFSLDIGTRTVIGTVGSIKDKKFSVIAEKHTEHEERAMVDGQIHDINLVARAVNKVKSQIEEELGFELKDVAIAAAGRFLRTTAVRSELNIDEDKEIDKDVIRGLELTAVKKAQDEVNKETEGKLYCVGYSVKNYFLNGYAISNLLSHKGNSIAVDVIATFLPRSIVESLYAVMNKVNLNVKSLTLEPIAAMEAAVPKNLRLLNIALLDVGAGTSDIAISSKDTISAYGMVPFAGDEITEVIAQNYLVDFNTAENIKRSCNVDTEIKYTDVLGIENTIKSEEVIKLIQPTVQKLAEEVANKIIELNGEKSPNAVFIVGGGAHTPMLKDLLAENLKIQPQRLAIKGRESVTDCICTDNSLGSTGVTVLGIALVAIRRFGNDFIDVILNDNIISLFNARVHTVKDVVVQAGVNPKLLIGKNGKNVRFILNGVKRVAFGTVAKNAEIRINGLIANIDSEVKENDKIEIKYAENGIDASPIIKDYVKNLYSLGFFIDDEVVNLEPIFIINGNKVTIDTEISEGDEVETVYPSKLIHYIRYYDSDLNKEYYINNIKLDENYDIKEGDRIYTKPKEEEQEVEIIPLAEEDKEEQEVVSHPKEIEKEDDDVNTIVVVVNGNPIKMSGKEKYKFVDIFDYFKFDLTQVKGNLVLTLNGEKVSFFDELHDKDIIEVKWE
MNIPVEVEVAEVLTDSAATGIFEPGDKLLSIDGTAISTPGDAQTIVRSKAPGDEITISYERNDAESQATITLREHPLEHHHHHH
MNIVIAVGILVTLVTGIPVLLQLLKGHPRGLIICFLAEMWERFSYYGMRAILIFYLTQHFLFDPKAASGHYGSYTALVYLVPLIGGFLADKWLGTRKAVAFGAVLLVAGHLAMAIEGKPAVQTLTYQGATYEFQAEGRGQNREAKLVVDGKAYEVAATKVGDFEIKGLPANAPLPAVLPKADYKLDVAGRDPLYLNIFWFSLSLIILGVGFLKPNISTIVGQLYPQGDPRRDPGFTLYYYGINLGSFWASILCGLLGVNVGWWAGFGLAGVGMLAGFIVFVLGKPWLDGKAEPPEPKVLKEKVAGPINRELAIYGLSLVGLVGIFFLVQFNAIVGVALNIGILASLGYIGFFMFTKCAKEERERLALAVFLIFGAVVFWTLFEQAGSSLSLFAATNVQLDLVREPLRLFSGAVTLATPDQLAKAGIDAASTFWVDTSFNAPQTQALNAGWILIFAPVFAAVWTFLGARGKDPNPVIKFGLALIQVGAGFLLLQWGSTFADGAFKLPLIFLVLMYMLHTTGELCMSPVGLSQMTKLSPASVVSFMMAVWFLAVAIAQWVGGKIAGLAATETVGGQVLDPGAALAASLKVFNIIGLVAVAIGIGFLLLSPVLKKWSHGADNVGAPKKA
MNIVLFHSTLGPRPAVRQAADRLRDAGHQVWTPDLFEGRTFDTVEEGMAHQDGIGREELLKRAVLAAAPYSERGLVYAGFSLGASIAQTLALGDHRARGLLLLHGTSDLAPNASVDELPVQLHVAEPDPFETDDWLSAWYLQMGRIGADVEVHRYPGAGHLYTDPGLDDYDAEAAEATWRVALGFLESLQEAQAGE
